Source: the DeepSol protein solubility set

assay: soluble on expression in E. coli; label from the status in PepcDB or PDB records

Q: Which “soluble on expression in E. coli” value does the source give for “MAHHHHHHSLNVLSVSSEIYPLIKTGGLADVVGALPIALEAHGVRTRTLIPGYPAVKAAVTDPVKCFEFTDLLGEKADLLEVQHERLDLLILDAPAYYERSGGPYLGQTGKDYPDNWKRFAALSLAAARIGAGVLPGWRPDMVHAHDWQAAMTPVYMRYAETPEIPSLLTIHNIAFQGQFGANIFSKLALPAHAFGMEGIEYYNDVSFLKGGLQTATALSTVSPSYAEEILTAEFGMGLEGVIGSRAHVLHGIVNGIDADVWNPATDHLIHDNYSAANLKNRALNKKAVAEHFRIDDDGSPLFCVISRLTWQKGIDLMAEAVDEIVSLGGRLVVLGAGDVALEGALLAAASRHHGRVGVAIGYNEPLSHLMQAGCDAIIIPSRFEPCGLTQLYALRYGCIPVVARTGGLADTVIDANHAALASKAATGVQFSPVTLDGLKQAIRRTVRYYHDPKLWTQMQKLGMKSDVSWEKSAGLYAALYSQLISKGHEG” here?
A: not soluble

Q: Which “soluble on expression in E. coli” value does the source give for “MQKVLAIVGPTAIGKTDLAISLAQKLNGEIISGDSMQVYQEVEVGTAKATKEEQAKVKHYLVDNRSVFDEYSVKDFVDEAKKAISEVAKKGKLPILVGGTGFYVNALLNEMQLGERNDEERGTSQKWEDYLKENGAEKLWQILNEKDPTAAAKIPVPNSRRTMRALTVIDRTGKKFSEQQKKIKPRYDYLIIGLNSDRQEIYRRINLRVDKMMGKGMLEEAKFIYDNRDKEHQILQAIAYKEFFPYFDGEKSLEDCVTQLKTASRRYAKRQLTYFRNQLPIQWFDPLNDLECEQKIINKVREWENGLEHHHHHH” here?
A: soluble

Q: For “MGSDKIHHHHHHMISKLAEIVGEEWVISGDEAKLYSYPAFIPLKIEPPVVVLPGSEEEVISLVNFLNENNIKYIVRGSGTSLSGATTPTQGEVVISLTRLNRIYSLDNFEITVGPGLANFLINKTLGNSNLFYAPDPSSYVVSSIGGNISHDSGGMHTPKYGTTFDSIIRLKVLLSNGHVEEIGSSNFFDPTSIFVGAEGTLGVILRATLRLFPKPEVSKTILASFNSIDDAGKAVVSVYKAGVTPAAMEFLDKNSIIAIENTQYKANYPMAEAILLIELDGYSVNVEEEEVRVVSAIRNNNGEVFIPKDEEEKNRWWWGRKGAFPSFAYYSPAYLTLDANVPRSTLPTMLRFTYEISKKYGLPVANSFHAGDGTLHPLIGFDPKNADETIKAIKAAEEITKLAIKVGGVPSGEHGIGIEKIKFMKLYYSEDDLTLMRRLKATFDPKRLLNPCKLIPPAKNEICNTVNRIHTYLLEGDI”, which “soluble on expression in E. coli” value is on record?
A: not soluble

Q: Which “soluble on expression in E. coli” value does the source give for “MLTNEQLAALRSRLLDMKRETEDRLKQNDHFGMIRSHAHDAVGELASYDNHPADEATELYEREKDLALKEHAERELREIERALGAIADGTYGTCRVCGRPIPYERLEALPTTLYCREHSPDQTVSQKRPLEEGVLMPPFGKFDFDDRAESVAYDAEDAWQEVARYGTSDTPSDLGKNVDSYSEVYAESEENVGYVEDLENFAAVDLHGQHVRVYPTREHELLENILDDEGIMSNIGDLPAYEKDPYTSKDSYRRYDERPSQQHFGETTP” here?
A: not soluble

Q: With “MNKQLLSCSLKSGKQVTMVVASVATDGVDQQVEISYYDQKVIGNGSFGVVFLAKLSTTNEMVAIKKVLQDKRFKNRELQIMRKLNHPNIVKLKYFFYSSGEKKDELYLNLILEYVPETVYRVARHYSKQRQQIPMIYVKLYMYQLLRSLAYIHSIGICHRDIKPQNLLIDPESGVLKLCDFGSAKYLVRNEPNVSYICSRYYRAPELIFGATNYTNSIDVWSAGTVMAELLLGQPIFPGDSGVDQLVEIIKVLGTPTREQIQSMNPNYKEFKFPQIKAHPWNKVFRVHTPAEAIDLISKIIEYTPTSRPTPQAACQHAFFDELRNPDARLPSGRPLPTLEMDGPMGTGEVSTTSGDVAGPSA” as the sequence, how does the “soluble on expression in E. coli” value read?
A: not soluble

Q: For “FSVEELSEILESHSIRLELQPILELETGRVGAAEGLLRINLDGTDVPTGQFVQSVEQAGLAPKLDIAVMREGINHIERLRAVCPTFSLALNLSGYSLSSAKIREELRAEFRARDLPRGSIRFEITETAPIEDIDAAKEFVQMLKDFGFHIVIDDFGAGHEPYQYLKKFDFSVLKIAGEFIEGMVTNRVDRSIVESIAQLAKDEEMETVAEFVSSKEILEAVREIGVTYAQGFHIGKSKPIDEFIATYLETNQTATWG”, which “soluble on expression in E. coli” value is on record?
A: not soluble

Q: With “NQLLTQQANEDGLTKLFNRRYIDQKLDSMVAWHGRHHMPMAMILLDVDFFKPFNDNYGHIEGDRCLQAIANQLKATFCRSGEYVGRYGGEEFVVLLSSTDAQTAEREAERIQEAMYFLDYQHEFSSVANRVTVSQGVFVFQPTGKENQADLYATADRALYTSKSLGRNTYTMVNAS” as the sequence, how does the “soluble on expression in E. coli” value read?
A: not soluble

Q: Which “soluble on expression in E. coli” value does the source give for “MGSDKIHHHHHHMTASLTALRAFDAAARNGSFRAAAADLNVTPTAISHHIRGLEDQLGVKLFRREGRDVALTDDGRRLADATNQAFGLLDNAVQSLRRSARKAVRVSAGPIFTARWLMPRISDFWEAHREIELEVVPAIHPGARDRENVDIVIRWDRIADMGRDAVKLLELSPVAIASEDFVAKRGPIDHPKDLLILPLLHQRNHWGWLDWFEAMGVSLADPLYGPIFEDANVLLRGAAEGQGAIIGWLPLIDQDLAEKRVVRVFDERIAPTHGYFVDVQHNSRARVEVRAVEDWLISQS” here?
A: not soluble

Q: For “MSLPKPQLRIIAGDFEDPRIIALLAHHFATMRSTGPEESCHVMPLGTMRQADLDFFAAWDGDALAGFGAVKQLGDGHGEIKSMHTAAAYRGRGVGQAVLDHLSTHARALGLQRLSLETGAGDFFVPARAMYARNGFQTCDPFGDYKPDPNSVFMTRMLEGHHHHHH”, which “soluble on expression in E. coli” value is on record?
A: not soluble

Q: For “MAQILPIRFQEHLQLQNLGINPANIGFSTLTMESDKFICIREKVGEQAQVVIIDMNDPSNPIRRPISADSAIMNPASKVIALKAGKTLQIFNIEMKSKMKAHTMTDDVTFWKWISLNTVALVTDNAVYHWSMEGESQPVKMFDRHSSLAGCQIINYRTDAKQKWLLLTGISAQQNRVVGAMQLYSVDRKVSQPIEGHAASFAQFKMEGNAEESTLFCFAVRGQAGGKLHIIEVGTPPTGNQPFPKKAVDVFFPPEAQNDFPVAMQISEKHDVVFLITKYGYIHLYDLETGTCIYMNRISGETIFVTAPHEATAGIIGVNRKGQVLSVCVEEENIIPYITNVLQNPDLALRMAVRNNLAGAEEL”, which “soluble on expression in E. coli” value is on record?
A: soluble

Q: With “GIHMGKIKRRAITEHEKRALRHYFFQLQNRSGQQDLIEWFREKFGKDISQPSVSQILSSKYSYLDNTVEKPWDVKRNRPPKYPLLEAALFEWQVQQGDDATLSGETIKRAAAILWHKIPEYQDQPVPNFSNGWLEGFRKRHILH” as the sequence, how does the “soluble on expression in E. coli” value read?
A: soluble

Q: For “GHMNVAKREFIRGMMAHYRASLPPPEHSVVIHELQKRVLDIGMLAVNKAHVELFGSHVSGFCTPHSDADISLTYRNFSPWLQGMERVDEQNNKRMTRFGKEASAMGMEDVRYIRARIPVVQFTDGVTGIHCDVSIGNIGGVENSKILCAIRQVFPDFYGAYIHLVKAWGKAREVIAPERSTFNSFTVTTMALMVLQELGLLPVFSKPTGEFGELTVADAEMLLQEFKLPPIYDSLHDDDEKLGEAVFFCLQRFAEYYAKYDFSAGTVSLIHPRRHRTVYERVVRRHLELLGSRKRLEWEKHIAEHKEDGPLDENDFSASMQNETTQRPSNSPYVVEDFVNYVNCGRRVQASRVRHIQQEFNRLREMLIDKESELKFDEVFRESDTVP”, which “soluble on expression in E. coli” value is on record?
A: soluble

Q: For “GGLPIVGDIFRFLDNGRTGLYENYKEFSTELNMTRESNGVKVTINDVISDGRTLSITYSLESEQDLGDDPIILGGLDIMDAHGSSGSGKMTKVTEKKYVGMVTTTHHDSNKKDKVNFRWNIEGIEIPDRKKSIQGHWNFALTVKSMDSKERTIGGSSEKEGIKANMEKVAMSPVSFILYYNQEVSKGARKEWDSVDVELTVKDDLGNDYSGEGNGGSGNDPYNIRWSATFQKLNENATKLIVTPRVHLRVHTPENHGGVEYVNGKEKKIEVPNKEAKKKDIVLDDIVIDLKK”, which “soluble on expression in E. coli” value is on record?
A: soluble

Q: With “MSLWRSTVARAPLDARERKNLVAHVQSAQAHESAQHAELAKLRASVNVMKAAEATPRNDEAGQDSAMIPMAGPGVRIILDDANAAPADELGDKDMRKLVNAVWQSGAEAVAINGHRIGPRTAIRSAGSAITVDYVSLSRPYVVEAIGSPQKLPAELADTPGGRWMTYLRDNSSITYQVTTKDRVSVPGSKASVSHARPHREGHHHHHH” as the sequence, how does the “soluble on expression in E. coli” value read?
A: soluble

Q: For “MEIRVKCRCGEEECSEWAIVELQGVVETQASFQGSIQNLEIGRLCHSDSSQGTYTFTVGYHELVGSKVTLKKPLLVLKKLQFDEVSGKATELEVVGIIRTKILFKTRPKPLISGNNNLSLFCS”, which “soluble on expression in E. coli” value is on record?
A: not soluble

Q: For “MGSDKIHHHHHHMLKIYVVDNGGQWTHREWRVLRELGVDTKIVPNDIDSSELDGLDGLVLSGGAPNIDEELDKLGSVGKYIDDHNYPILGICVGAQFIALHFGASVVKAKHPEFGKTKVSVMHSENIFGGLPSEITVWENHNDEIINLPDDFTLAASSATCQVQGFYHKTRPIYATQFHPEVEHTQYGRDIFRNFIGICASYREIQKENFQH”, which “soluble on expression in E. coli” value is on record?
A: soluble

Q: Which “soluble on expression in E. coli” value does the source give for “MEQKQRRFTKNIFVLDVTAKTLCGAIAKLSSQPYCQIKIGRVVAFKPVKNPEPKGYVLNVPGPGAYRIQDGQDIISLMLTPHGVEATTERWEEWKFEGVSVTPMATRVQYNGVMVDAEIKYCKGMGIVQPYMRNDFDRNEMPDLPGVMRSNYDIRELRQKIKNERESAPRLQVHSVARPGSENLYPQ” here?
A: soluble

Q: For “MARVAIVGTGPTGIYTFFNLIQTDPSHHITLFERGEKAGIGLPYSPEAASKSMLANIASIEIPPIEATYLDWLKGQPDAKLRAYGLDRAELDDRQFTPRLLLGEYFRDQLLSLLDRHRARTEVLETTEVTDVIARNDALFLRAAEREFGPFDRVILATGHVFPDADEATRSYFPSPWSGLIQAEVPPVSVGIMGTSLSSIDAAMAVANQHGRFRRHGEELTFEPATEGLHLTLMSWSGVLPEADFWCPIPYEPLQVMTDDAVAQCAAQADPLDRVFALLQEEIAQADPAYADRIGLATLTADTFGDAYFAAREAQDPFRWARRNLEEVEHNKAHQITVPWRYALLRMHEKVETLVPHLGDADRKRFDGGLKKVFVDNYAAVPSESIRRLLALRDAGLLSVLALGEDYELKREPDRTVIHAKGKTHVFPVFIDARGQKPMESRDMPFPSLRRALMGSKQDIPELDADFALVGVPDYDRHAHLAAIPYLMHDRPFVQGITASAEIGATIARGISQAVGDRAAQGGRRSSAPVVATGLEHHHHHH”, which “soluble on expression in E. coli” value is on record?
A: soluble

Q: With “MRIEKVDTFPLFHKLSSPYGDANGLKSYRTSYLIRITTASGLTGWGECADWLPALDAGFKKRIIPYLIGKEASNRTELITVIKKWHQRAASAVSMALTDITAKKAGLSVCELWGGKLREQIPVYASFQSYSDRPDWSRHSLRLIEKAVRAGFKAVKLKAGGKMFSEDLAHIQAFQEMTGQSTGLILDANQSYDQAAARKWETWFSGWQNVLWFEEPMPFDDLAEYRMLRSALSVPVAGGENVKGAKPFLPIFLENAVDIAQPDVMHCEGTDEFQTVLKLARHFGKRVSPHSYDGGLSRIYAAFGQACLPHWTKMDGEDIEPLEWDAMENPFAQIVPVSIKDGCIQVPDKIEIDTELVEAYVWDGSSYI” as the sequence, how does the “soluble on expression in E. coli” value read?
A: soluble

Q: For “MSLGLLNCLTGAALPLMESDVTSYVSGYALGLTASLTYGNLEAQPFQGLFVYPIDEYSTVVGFEAVIADRVVTIQLRDKAKLDRSHLDIQPATVTGNFPEEESPIAPGKVTLDEDLERVLFVVNLGTIAPMENVTVFISTSSELPTLPSGAVRVLLPAICAPTVPPSCTHRFGSSSPQPQGKDPHCFGTQTKDSYNRLCLATLLDTKVTNPMEYEFKFQLEIRGPCLLAGVESPTHEIRADAAPSAHSAKSIIITLAKKHTFDRPVEILLHPSEPHMPHVLVEKGDMTLGEYDQHLKGKADFIRGTKKDNSAERKTEVIRKRLHKDIPHHSVIMLNFCPDLQSVQPNPRKAHGEFIFLIDRSNSMSKTNIQCIKEAMLVALKSLMPACFFNIIGFGSTFKAVFASSRIYNEENLTMACDCIQRMQADMGGTNMLSPLKWVLRQPLRRGHPRLLFLITDGSVNNTGKVLELVRNHASSTRCYSFGIGPTVCYRLVKGLASVSKGSAEFLMEGERLQPKMVKSLKKAMAPVLSDVTVEWVFPETTEALISPVSTSSLFPGERLMGYGIVCDASLYISNSRSEGHHHHHH”, which “soluble on expression in E. coli” value is on record?
A: not soluble
